Reference: paper PMC10959955 (2024)

B1: His6-tagged RING domain heterodimer, GA mutant (GST-RING^A T948G^A-T952A^A with His6-Twin-Strep-Rad6A-RING^B) (complex)
chain 1: PDNVPKCDEILMEEIKDYKARLTCPCCNMRKKDAVLTKCFHVFCFECVKGRYDARQRKCPKCNAAFGANDFHRIYIG
chain 2: MSTPARRRLMRDFKRLQEDPPAGVSGAPSENNIMVWNAVIFGPEGTPFEDGTFKLTIEFTEEYPNKPPTVRFVSKMFHPNVYADGSICLDILQNRWSPTYDVSSILTSIQSLLDEPNPNSPANSQAAQLYQENKREYEKRVSAIVEQSWRDCVEVYADADEILQEEIKEYKARLTCPCCNTRKKDAVLTKCFHVFCFECVRGRYEARQRKCPKCNAAFGAHDFHRIYIS
modifications: RED-Tris-NTA label on the His6 tag
B2: His6-tagged RING domain heterodimer, TT mutant (GST-RING^A with His6-Twin-Strep-Rad6A-RING^B G974T^B-A978T^B) (complex)
chain 1: PDNVPKCDEILMEEIKDYKARLTCPCCNMRKKDAVLTKCFHVFCFECVKTRYDTRQRKCPKCNAAFGANDFHRIYIG
chain 2: MSTPARRRLMRDFKRLQEDPPAGVSGAPSENNIMVWNAVIFGPEGTPFEDGTFKLTIEFTEEYPNKPPTVRFVSKMFHPNVYADGSICLDILQNRWSPTYDVSSILTSIQSLLDEPNPNSPANSQAAQLYQENKREYEKRVSAIVEQSWRDCVEVYADADEILQEEIKEYKARLTCPCCNTRKKDAVLTKCFHVFCFECVRTRYETRQRKCPKCNAAFGAHDFHRIYIS
modifications: RED-Tris-NTA label on the His6 tag
B3: His6-tagged RING domain heterodimer, GA + TT mutant (GST-RING^A T948G^A-T952A^A with His6-Twin-Strep-Rad6A-RING^B G974T^B-A978T^B) (complex)
chain 1: PDNVPKCDEILMEEIKDYKARLTCPCCNMRKKDAVLTKCFHVFCFECVKGRYDARQRKCPKCNAAFGANDFHRIYIG
chain 2: MSTPARRRLMRDFKRLQEDPPAGVSGAPSENNIMVWNAVIFGPEGTPFEDGTFKLTIEFTEEYPNKPPTVRFVSKMFHPNVYADGSICLDILQNRWSPTYDVSSILTSIQSLLDEPNPNSPANSQAAQLYQENKREYEKRVSAIVEQSWRDCVEVYADADEILQEEIKEYKARLTCPCCNTRKKDAVLTKCFHVFCFECVRTRYETRQRKCPKCNAAFGAHDFHRIYIS
modifications: RED-Tris-NTA label on the His6 tag
B4: His6-tagged RING domain heterodimer, wild type (GST-RING^A with His6-Twin-Strep-Rad6A-RING^B) (complex)
chain 1: PDNVPKCDEILMEEIKDYKARLTCPCCNMRKKDAVLTKCFHVFCFECVKTRYDTRQRKCPKCNAAFGANDFHRIYIG
chain 2: MSTPARRRLMRDFKRLQEDPPAGVSGAPSENNIMVWNAVIFGPEGTPFEDGTFKLTIEFTEEYPNKPPTVRFVSKMFHPNVYADGSICLDILQNRWSPTYDVSSILTSIQSLLDEPNPNSPANSQAAQLYQENKREYEKRVSAIVEQSWRDCVEVYADADEILQEEIKEYKARLTCPCCNTRKKDAVLTKCFHVFCFECVRGRYEARQRKCPKCNAAFGAHDFHRIYIS
modifications: RED-Tris-NTA label on the His6 tag

Each binder was assayed against nucleosome reconstituted with human core histones and Widom 601 DNA (human, UniProt P04908 2-130; P06899 1-126; P68431 1-136; P62805 2-103) (assay: MST).

Question: Which Kd does the source give for B1 here?
Answer: The Kd was 11.8 nM.

Question: B2 was tested. Which Kd did it give?
Answer: The Kd was 7.3 nM.

Question: With B3 as the binder, how does the Kd read?
Answer: The Kd was 34 nM.

Question: With B4 as the binder, how does the Kd read?
Answer: The Kd was 7.8 nM.
